Assay results taken from patent US20200264182A1, “METHOD FOR DETECTING PROSTATE CANCER” (J-OIL MILLS, INC., priority 2017, published 2020).
Values belong to the substance of their own block, whether it stands above or below them.

Legend:
[1] = biological target: serum fucosylated PSA (prostate specific antigen) (human) (UniProt P07288); assay: sandwich ELISA, anti-PSA antibody capture, biotin-lectin detection, pH 7.4; serum of Healthy 1
[2] = biological target: serum fucosylated PSA (prostate specific antigen) (human) (UniProt P07288); assay: sandwich ELISA, anti-PSA antibody capture, biotin-lectin detection, pH 7.4; serum of Healthy 2
[3] = biological target: serum fucosylated PSA (prostate specific antigen) (human) (UniProt P07288); assay: sandwich ELISA, anti-PSA antibody capture, biotin-lectin detection, pH 7.4; serum of Healthy 3
[4] = biological target: serum fucosylated PSA (prostate specific antigen) (human) (UniProt P07288); assay: sandwich ELISA, anti-PSA antibody capture, biotin-lectin detection, pH 7.4; serum of Healthy 4
[5] = biological target: serum fucosylated PSA (prostate specific antigen) (human) (UniProt P07288); assay: sandwich ELISA, anti-PSA antibody capture, biotin-lectin detection, pH 7.4; serum of Healthy 5
[6] = biological target: serum fucosylated PSA (prostate specific antigen) (human) (UniProt P07288); assay: sandwich ELISA, anti-PSA antibody capture, biotin-lectin detection, pH 7.4; serum of Healthy 6
[7] = biological target: serum fucosylated PSA (prostate specific antigen) (human) (UniProt P07288); assay: sandwich ELISA, anti-PSA antibody capture, biotin-lectin detection, pH 7.4; serum of Healthy 7
[8] = biological target: serum fucosylated PSA (prostate specific antigen) (human) (UniProt P07288); assay: sandwich ELISA, anti-PSA antibody capture, biotin-lectin detection, pH 7.4; sera of subgroup GS6, n=2
[9] = biological target: serum fucosylated PSA (prostate specific antigen) (human) (UniProt P07288); assay: sandwich ELISA, anti-PSA antibody capture, biotin-lectin detection, pH 7.4; sera of subgroup GS7, n=2
[10] = biological target: serum fucosylated PSA (prostate specific antigen) (human) (UniProt P07288); assay: sandwich ELISA, anti-PSA antibody capture, biotin-lectin detection, pH 7.4; serum of Prostate cancer 1 (GS 4)
[11] = biological target: serum fucosylated PSA (prostate specific antigen) (human) (UniProt P07288); assay: sandwich ELISA, anti-PSA antibody capture, biotin-lectin detection, pH 7.4; serum of Prostate cancer 2 (GS 5)
[12] = biological target: serum fucosylated PSA (prostate specific antigen) (human) (UniProt P07288); assay: sandwich ELISA, anti-PSA antibody capture, biotin-lectin detection, pH 7.4; serum of Prostate cancer 3 (GS 6)
[13] = biological target: serum fucosylated PSA (prostate specific antigen) (human) (UniProt P07288); assay: sandwich ELISA, anti-PSA antibody capture, biotin-lectin detection, pH 7.4; serum of Prostate cancer 4 (GS 6)
[14] = biological target: serum fucosylated PSA (prostate specific antigen) (human) (UniProt P07288); assay: sandwich ELISA, anti-PSA antibody capture, biotin-lectin detection, pH 7.4; serum of Prostate cancer 5 (GS 7)
[15] = biological target: serum fucosylated PSA (prostate specific antigen) (human) (UniProt P07288); assay: sandwich ELISA, anti-PSA antibody capture, biotin-lectin detection, pH 7.4; serum of Prostate cancer 6 (GS 7)
[16] = biological target: serum fucosylated PSA (prostate specific antigen) (human) (UniProt P07288); assay: sandwich ELISA, anti-PSA antibody capture, biotin-lectin detection, pH 7.4; serum of Prostate cancer 7 (GS 8)
[17] = biological target: serum fucosylated PSA (prostate specific antigen) (human) (UniProt P07288); assay: sandwich ELISA, anti-PSA antibody capture, biotin-lectin detection, pH 7.4; serum of Prostate cancer 8 (GS 8)
[18] = biological target: serum fucosylated PSA (prostate specific antigen) (human) (UniProt P07288); assay: sandwich ELISA, anti-PSA antibody capture, biotin-lectin detection, pH 7.4; serum of Prostate cancer 9 (GS 8)
[19] = biological target: serum fucosylated PSA (prostate specific antigen) (human) (UniProt P07288); assay: sandwich ELISA, anti-PSA antibody capture, biotin-lectin detection, pH 7.4; sera of subgroup GS8 or more, n=3
[20] = biological target: serum fucosylated PSA (prostate specific antigen) (human) (UniProt P07288); assay: sandwich ELISA, anti-PSA antibody capture, biotin-lectin detection, pH 7.4; sera of the healthy person group (n=7)
[21] = biological target: serum fucosylated PSA (prostate specific antigen) (human) (UniProt P07288); assay: sandwich ELISA, anti-PSA antibody capture, biotin-lectin detection, pH 7.4; sera of subgroup Negative (GS5 or less), n=2
[22] = biological target: serum fucosylated PSA (prostate specific antigen) (human) (UniProt P07288); assay: sandwich ELISA, anti-PSA antibody capture, biotin-lectin detection, pH 7.4; sera of the prostate cancer patient group (n=9)
[23] = biological target: serum fucosylated PSA (prostate specific antigen) (human) (UniProt P07288); assay: sandwich ELISA, anti-PSA antibody capture, biotin-lectin detection, lectin reaction pH 7.4; serum of Healthy 1
[24] = biological target: serum fucosylated PSA (prostate specific antigen) (human) (UniProt P07288); assay: sandwich ELISA, anti-PSA antibody capture, biotin-lectin detection, lectin reaction pH 7.4; serum of Prostate cancer 4
[25] = biological target: serum fucosylated PSA (prostate specific antigen) (human) (UniProt P07288); assay: sandwich ELISA, anti-PSA antibody capture, biotin-lectin detection, lectin reaction pH 9.6; serum of Prostate cancer 4
[26] = biological target: serum fucosylated PSA (prostate specific antigen) (human) (UniProt P07288); assay: sandwich ELISA, anti-PSA antibody capture, biotin-lectin detection, lectin reaction pH 9.6; serum of Healthy 1

AAL reaction value [1]: 1100 U/mL | AAL reaction value [2]: 855 U/mL | AAL reaction value [3]: 1060 U/mL | AAL reaction value [4]: 115 U/mL | AAL reaction value [5]: 32.3 U/mL | AAL reaction value [6]: 1190 U/mL | AAL reaction value [7]: 1030 U/mL | AAL reaction value (mean value) [8]: 1040 U/mL | AAL reaction value (median value) [8]: 1040 U/mL | AAL reaction value (mean value) [9]: 993 U/mL | AAL reaction value (median value) [9]: 993 U/mL | AAL reaction value [10]: 831 U/mL | AAL reaction value [11]: 1030 U/mL | AAL reaction value [12]: 1150 U/mL | AAL reaction value [13]: 926 U/mL | AAL reaction value [14]: 1020 U/mL | AAL reaction value [15]: 962 U/mL | AAL reaction value [16]: 1210 U/mL | AAL reaction value [17]: 1010 U/mL | AAL reaction value [18]: 988 U/mL | AAL reaction value (mean value) [19]: 1070 U/mL | AAL reaction value (median value) [19]: 1010 U/mL | AAL reaction value (average value) [20]: 769 U/mL | AAL reaction value (median value) [20]: 1030 U/mL | AAL reaction value (mean value) [21]: 932 U/mL | AAL reaction value (median value) [21]: 932 U/mL | AAL reaction value (average value) [22]: 1020 U/mL | AAL reaction value (median value) [22]: 1010 U/mL
Substance: Aleuria aurantia lectin (AAL), biotin-labeled (from UniProt P18891 2-313)

AML reaction value [23]: 21.2 U/mL | AML reaction value [24]: 141 U/mL | AML reaction value [25]: 151 U/mL
Substance: Amanita muscaria lectin (AML), biotin-labeled

NSL reaction value [23]: 178 U/mL | NSL reaction value [26]: 42.3 U/mL | NSL reaction value [24]: 400 U/mL | NSL reaction value [25]: 283 U/mL
Substance: Naematoloma sublateritium lectin (NSL), biotin-labeled

PhoSL peptide reaction value [23]: 1 U/mL | PhoSL peptide reaction value [24]: 102 U/mL | PhoSL peptide reaction value [25]: 234 U/mL
Substance: Pholiota squarrosa lectin peptide (PhoSL peptide), biotin-labeled

SRL reaction value [23]: 20 U/mL | SRL reaction value [26]: 16.8 U/mL | SRL reaction value [24]: 146 U/mL | SRL reaction value [25]: 234 U/mL
Substance: Stropharia rugosoannulata lectin (SRL), biotin-labeled
